This series addresses RAP1 (RAP1-GTPase) (UniProt P62834).

Chain of RAP1 (RAP1-GTPase) (P62834 1-181): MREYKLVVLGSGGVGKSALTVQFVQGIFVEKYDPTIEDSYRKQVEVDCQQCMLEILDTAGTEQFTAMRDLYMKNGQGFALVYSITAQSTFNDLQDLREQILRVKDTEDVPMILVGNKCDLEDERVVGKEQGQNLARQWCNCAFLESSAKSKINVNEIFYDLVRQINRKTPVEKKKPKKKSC

As to “Rap1GAP (RAP1 GTPase Activating Protein)”, the “RAP1 activity (active GTP-bound RAP1 pull-down, immunoblot with RAP1 antibody)” value is “Enforced Rap1GAP expression in human GICs inhibited RAP1 activity”.

The values above are taken from patent US20180030546.
